test system: CD8+ T cells; experiment: In vitro T-cell priming assay with aAPCs loaded with peptide/MHC complexes and anti-CD28 (immunogenicity, multimer staining); type: cell-based, human; settings: healthy HLA-A*02+ donors; share of positive donors
Source text: In order to obtain information regarding the immunogenicity of the TUMAPs of the present invention, the inventors performed investigations using an in vitro T-cell priming assay based on repeated stimulations of CD8+ T cells with artificial antigen presenting cells (aAPCs) loaded with peptide/MHC complexes and anti-CD28 antibody.
In order to perform in vitro stimulations by artificial antigen presenting cells loaded with peptide-MHC complex (pMHC) and anti-CD28 antibody, the inventors first isolated CD8+ T cells from fresh HLA-A*02 leukapheresis products via positive selection using CD8 microbeads (Miltenyi Biotec, Bergisch-Gladbach, Germany) of healthy donors obtained from the University clinics Mannheim, Germany, after informed consent.
PBMCs and isolated CD8+ lymphocytes were incubated in T-cell medium (TCM) until use consisting of RPMI-Glutamax (Invitrogen, Karlsruhe, Germany) supplemented with 10% heat inactivated human AB serum (PAN-Biotech, Aidenbach, Germany), 100 U/ml Penicillin/100 μg/ml Streptomycin (Cambrex, Cologne, Germany), 1 mM sodium pyruvate (CC Pro, Oberdorla, Germany), 20 μg/ml Gentamycin (Cambrex). 2.5 ng/ml IL-7 (PromoCell, Heidelberg, Germany) and 10 U/ml IL-2 (Novartis Pharma, Nürnberg, Germany) were also added to the TCM at this step.
Generation of pMHC/anti-CD28 coated beads, T-cell stimulations and readout was performed in a highly defined in vitro system using four different pMHC molecules per stimulation condition and 8 different pMHC molecules per readout condition.
The purified co-stimulatory mouse IgG2a anti human CD28 Ab 9.3 (Jung et al., 1987) was chemically biotinylated using Sulfo-N-hydroxysuccinimidobiotin as recommended by the manufacturer (Perbio, Bonn, Germany). Beads used were 5.6 μm diameter streptavidin coated polystyrene particles (Bangs Laboratories, Illinois, USA).
pMHC used for positive and negative control stimulations were A*0201/MLA-001 (peptide […] (SEQ ID NO. 152) from modified Melan-A/MART-1) and A*0201/DDX5-001 ([…] from DDX5 (SEQ ID NO. 153)), respectively.
800.000 beads/200 μl were coated in 96-well plates in the presence of 4×12.5 ng different biotin-pMHC, washed and 600 ng biotin anti-CD28 were added subsequently in a volume of 200 μl. Stimulations were initiated in 96-well plates by co-incubating […] CD8+ T cells with 2×10^5 washed coated beads in 200 μl TCM supplemented with 5 ng/ml IL-12 (PromoCell) for 3 days at 37° C. Half of the medium was then exchanged by fresh TCM supplemented with 80 U/ml IL-2 and incubating was continued for 4 days at 37° C. This stimulation cycle was performed for a total of three times. For the pMHC multimer readout using 8 different pMHC molecules per condition, a two-dimensional combinatorial coding approach was used as previously described (Andersen et al., 2012) with minor modifications encompassing coupling to 5 different fluorochromes. Finally, multimeric analyses were performed by staining the cells with Live/dead near IR dye (Invitrogen, Karlsruhe, Germany), CD8-FITC antibody clone SK1 (BD, Heidelberg, Germany) and fluorescent pMHC multimers. For analysis, a BD LSRII SORP cytometer equipped with appropriate lasers and filters was used. Peptide specific cells were calculated as percentage of total CD8+ cells. Evaluation of multimeric analysis was done using the FlowJo software (Tree Star, Oregon, USA). In vitro priming of specific multimer+ CD8+ lymphocytes was detected by comparing to negative control stimulations.

Substance	in vitro immunogenicity: donors
123 (YVDPVITSI; listed as Homo sapiens) [compound 123]	++++ (>=70% = ++++)
143 (ALFVRLLALA; listed as Homo sapiens) [compound 143]	+++ (50%-69% = +++)
127 (VLAPLFVYL; listed as Homo sapiens) [compound 127]	++++ (>=70% = ++++)

same assay, conditions: healthy HLA-A*02+ donors; share of positive wells

Substance	in vitro immunogenicity: wells
123 (YVDPVITSI; listed as Homo sapiens) [compound 123]	+ (<20% = +)
143 (ALFVRLLALA; listed as Homo sapiens) [compound 143]	+ (<20% = +)
127 (VLAPLFVYL; listed as Homo sapiens) [compound 127]	++ (20%-49% = ++)

same assay, conditions: in vitro immunogenicity, HLA class I peptides; percentage of positive wells

Substance	Wells positive [%]
15 (ILIKHLVKV; listed as Homo sapiens) [compound 15]	+ (<20% = +)
9 (ILLQKPDSV; listed as Homo sapiens) [compound 9]	+ (<20% = +)

target: HLA-A*02:01 (Homo sapiens, UniProt P04439, D140Y/D185E/D98H/E176V/E277Q/G131W/G231S/I119V/I121R/I166T/I218V/L300P/L318F/N151K/N90K/P208A/P217A/Q86G/Q94H/R138H/R169H/T345S); experiment: MHC binding assay (UV-ligand exchange, beta2m ELISA); settings: peptide exchange yield, HLA-A*02:01, UV-ligand exchange
Source text: Candidate peptides for T cell based therapies according to the present invention were further tested for their MHC binding capacity (affinity). The individual peptide-MHC complexes were produced by UV-ligand exchange, where a UV-sensitive peptide is cleaved upon UV-irradiation, and exchanged with the peptide of interest as analyzed. Only peptide candidates that can effectively bind and stabilize the peptide-receptive MHC molecules prevent dissociation of the MHC complexes. To determine the yield of the exchange reaction, an ELISA was performed based on the detection of the light chain (β2m) of stabilized MHC complexes. The assay was performed as generally described in Rodenko et al. (Rodenko et al., 2006).
96 well MAXISorp plates (NUNC) were coated over night with 2 ug/ml streptavidin in PBS at room temperature, washed 4× and blocked for 1 h at 37° C. in 2% BSA containing blocking buffer. Refolded HLA-A*02:01/MLA-001 monomers served as standards, covering the range of 15-500 ng/ml. Peptide-MHC monomers of the UV-exchange reaction were diluted 100 fold in blocking buffer. Samples were incubated for 1 h at 37° C., washed four times, incubated with 2 ug/ml HRP conjugated anti-β2m for 1 h at 37° C., washed again and detected with TMB solution that is stopped with […]. Absorption was measured at 450 nm. Candidate peptides that show a high exchange yield (preferably higher than 50%, most preferred higher than 75%) are generally preferred for a generation and production of antibodies or fragments thereof, and/or T cell receptors or fragments thereof, as they show sufficient avidity to the MHC molecules and prevent dissociation of the MHC complexes.

Substance	Peptide exchange (MHC class I binding score)
15 (ILIKHLVKV; listed as Homo sapiens) [compound 15]	++ (≥20% = ++)
9 (ILLQKPDSV; listed as Homo sapiens) [compound 9]	++ (≥20% = ++)
48 (VVASNIMEV; listed as Homo sapiens) [compound 48]	++ (≥20% = ++)
60 (ILWKDIEYV; listed as Homo sapiens) [compound 60]	+++ (≥50 = +++)
76 (VLADDHLIEV; listed as Homo sapiens) [compound 76]	++ (≥20% = ++)
51 (NLWPMILTL; listed as Homo sapiens) [compound 51]	+++ (≥50 = +++)
63 (GLIEDHFDVTV; listed as Homo sapiens) [compound 63]	++ (≥20% = ++)
83 (IQWSIVPEV; listed as Homo sapiens) [compound 83]	+++ (≥50 = +++)
37 (VLAPVILML; listed as Homo sapiens) [compound 37]	++ (≥20% = ++)
46 (GLSEVLVQI; listed as Homo sapiens) [compound 46]	+++ (≥50 = +++)
54 (ALVAKGLVQA; listed as Homo sapiens) [compound 54]	++ (≥20% = ++)
80 (KLASMLETL; listed as Homo sapiens) [compound 80]	+++ (≥50 = +++)
49 (VLIVEVPGV; listed as Homo sapiens) [compound 49]	+++ (≥50 = +++)
82 (SLLQATDFMSL; listed as Homo sapiens) [compound 82]	+++ (≥50 = +++)
90 (FTLEKNFVI; listed as Homo sapiens) [compound 90]	++ (≥20% = ++)
38 (VLLDTILQL; listed as Homo sapiens) [compound 38]	+++ (≥50 = +++)
99 (GLAPHLEQI; listed as Homo sapiens) [compound 99]	++ (≥20% = ++)
107 (VLMDLKALLL; listed as Homo sapiens) [compound 107]	+++ (≥50 = +++)
103 (KLQDGLLHI; listed as Homo sapiens) [compound 103]	++ (≥20% = ++)
85 (FVMSEIRTV; listed as Homo sapiens) [compound 85]	+++ (≥50 = +++)

Substance	Peptide exchange (MHC class I binding score)
39 (YLLNLNHLGL; listed as Homo sapiens) [compound 39]	+++ (≥50 = +++)
12 (ALDPSGNQLI; listed as Homo sapiens) [compound 12]	++ (≥20% = ++)
106 (VLMDLKALL; listed as Homo sapiens) [compound 106]	+++ (≥50 = +++)
11 (FIQTEAPKEV; listed as Homo sapiens) [compound 11]	++ (≥20% = ++)
81 (SLLPALPKL; listed as Homo sapiens) [compound 81]	++ (≥20% = ++)
110 (LLDLHSYLL; listed as Homo sapiens) [compound 110]	++ (≥20% = ++)
108 (VLISVLQAI; listed as Homo sapiens) [compound 108]	++ (≥20% = ++)
105 (ALADLDELLIRA; listed as Homo sapiens) [compound 105]	+++ (≥50 = +++)
79 (ALADIVWRA; listed as Homo sapiens) [compound 79]	+++ (≥50 = +++)
18 (YVLDLAAKV; listed as Homo sapiens) [compound 18]	+++ (≥50 = +++)
42 (VILDTGTIQL; listed as Homo sapiens) [compound 42]	++ (≥20% = ++)
31 (VLFGLDPAVIKV; listed as Homo sapiens) [compound 31]	+++ (≥50 = +++)
100 (KLNVAPLAV; listed as Homo sapiens) [compound 100]	++ (≥20% = ++)
61 (SLMGILLRI; listed as Homo sapiens) [compound 61]	++ (≥20% = ++)
13 (KIMAQILTV; listed as Homo sapiens) [compound 13]	+++ (≥50 = +++)
88 (TLAELHISL; listed as Homo sapiens) [compound 88]	++ (≥20% = ++)
59 (SLKNNVVSV; listed as Homo sapiens) [compound 59]	+++ (≥50 = +++)
70 (SLTALRLLL; listed as Homo sapiens) [compound 70]	++ (≥20% = ++)
78 (ALLDTVVQA; listed as Homo sapiens) [compound 78]	++ (≥20% = ++)

From patent publication US9993536B2, “Peptides and combination of peptides and scaffolds for use in immunotherapy against renal cell carcinoma (RCC) and other cancers” (immatics biotechnologies GmbH, priority 2015, dated 2018)
